Results published in paper PMC6341043.
Values joined by “and” are separate entries in the source; they are usually repeats but may differ in a detail not shown here. Equal values may be shown once.

Key:
[1] = biological target: Jun (LexA fusion, positive control of the bacterial two-hybrid system); assay: two-hybrid; bacterial two-hybrid (LexA-WT and LexA-MUT fusions) in E. coli SU202; heterodimerization represses lacZ; quantitative beta-galactosidase activity against the strain with empty vectors pSR658 and pSR659, n = 3
[2] = biological target: TraM (TraR antiactivator) of plasmid pAoF64/95 (Agrobacterium spp. (plasmid pAoF64/95)); assay: as above

Row | fold lower beta-galactosidase activity than the empty-vector control strain [2] | Substance | fold lower beta-galactosidase activity than the empty-vector control strain [1] [fold]
1 |  | Fos (LexA fusion, positive control of the bacterial two-hybrid system) (natural protein) | 52
2 | 2 fold and 3 fold | TmsPs (short form of TmsP, tra M sequestering protein, of plasmid pAoF64/95) (natural protein) | 
